This assay concerns the target T1, human MSLN antigen (human, UniProt Q13421 296-580, limits assumed).
T1 construct: Soluble antigen for BLI; also called Mesothelin; MESO
The experiment in a line: MSLN binding affinity (Octet BLI, Example 2B(a)); quoted in the RTCC example. (In general: Biolayer interferometry detects binding as a change in optical thickness at a sensor tip.)

The record followed here is US20240279356A1 (Xencor, published 2024).

T1 sequence (Q13421 other isoform, or with tags, fused parts or gaps limits assumed): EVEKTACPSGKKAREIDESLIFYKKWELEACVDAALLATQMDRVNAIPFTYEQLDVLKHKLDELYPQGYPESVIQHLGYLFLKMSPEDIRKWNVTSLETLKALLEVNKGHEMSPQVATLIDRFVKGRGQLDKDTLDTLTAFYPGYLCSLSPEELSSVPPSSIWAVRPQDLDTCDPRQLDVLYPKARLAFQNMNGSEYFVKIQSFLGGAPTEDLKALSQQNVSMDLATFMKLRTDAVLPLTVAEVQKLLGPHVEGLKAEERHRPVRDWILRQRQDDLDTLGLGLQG

B1: XENP33367 (bispecific antibody)
heavy: QVQLVQSGAEVKKPGASVKVSCKASGYTFTSYWMHWVRQAPGQGLEWMGWIHPNSDNTIYYEKFQGRVTMTVDKSISTAYMELSRLRSDDTAVYYCAIIITPVVPKFDYWGQGTLVTVSSASTKGPSVFPLAPSSKSTSGGTAALGCLVKDYFPEPVTVSWNSGALTSGVHTFPAVLQSSGLYSLSSVVTVPSSSLGTQTYICNVNHKPSDTKVDKKVEPKSCDKTHTCPPCPAPPVAGPSVFLFPPKPKDTLMISRTPEVTCVVVDVKHEDPEVKFNWYVDGVEVHNAKTKPREEEYNSTYRVVSVLTVLHQDWLNGKEYKCKVSNKALPAPIEKTISKAKGQPREPQVYTLPPSREEMTKNQVSLTCDVSGFYPSDIAVEWESDGQPENNYKTTPPVLDSDGSFFLYSKLTVDKSRWEQGDVFSCSVMHEALHNHYTQKSLSLSPGK
Fab-scFv-Fc: QVQLVQSGAEVKKPGASVKVSCKASGYTFTSYWMHWVRQAPGQGLEWMGWIHPNSDNTIYYEKFQGRVTMTVDKSISTAYMELSRLRSDDTAVYYCAIIITPVVPKFDYWGQGTLVTVSSASTKGPSVFPLAPSSKSTSGGTAALGCLVKDYFPEPVTVSWNSGALTSGVHTFPAVLQSSGLYSLSSVVTVPSSSLGTQTYICNVNHKPSNTKVDKKVEPKSCGGGGSGGGGSQAVVTQEPSLTVSPGGTVTLTCGSSTGAVTTSNYANWVQQKPGKSPRGLIGGTNKRAPGVPARFSGSLLGGKAALTISGAQPEDEADYYCALWYSNHWVFGGGTKLTVLGKPGSGKPGSGKPGSGKPGSEVQLVESGGGLVQPGGSLRLSCAASGFTFSTYAMNWVRQAPGKGLEWVGRIRSKANNYATYYADSVKGRFTISRDDSKNTLYLQMNSLRAEDTAVYYCVRHGNFGDSYVSWFAYWGQGTLVTVSSGGGGSGGGGSKTHTCPPCPAPPVAGPSVFLFPPKPKDTLMISRTPEVTCVVVDVKHEDPEVKFNWYVDGVEVHNAKTKPREEQYNSTYRVVSVLTVLHQDWLNGKEYKCKVSNKALPAPIEKTISKAKGQPREPQVYTLPPSREQMTKNQVKLTCLVKGFYPSDIAVEWESNGQPENNYKTTPPVLDSDGSFFLYSKLTVDKSRWQQGNVFSCSVMHEALHNHYTQKSLSLSPGK
light: DIVMTQSPDSLAVSLGERATINCKASHDVGTSVAWYQQKPGQSPKLLIYWASTRHTGVPDRFTGSGSGTDFTLTISSLQAEDVAVYFCQQYSSFPLTFGAGTKLEIKRTVAAPSVFIFPPSDEQLKSGTASVVCLLNNFYPREAKVQWKVDNALQSGNSQESVTEQDSKDSTYSLSSTLTLSKADYEKHKVYACEVTHQGLSSPVTKSFNRGEC
notes: 2+1 Fab2-scFv-Fc
B1 showed a Kd of 246 nM.

By Kd is commonly meant the concentration at which binding is half-saturated.
